T1: human GIP receptor (human) (UniProt P48546)
T1 sequence (looked up): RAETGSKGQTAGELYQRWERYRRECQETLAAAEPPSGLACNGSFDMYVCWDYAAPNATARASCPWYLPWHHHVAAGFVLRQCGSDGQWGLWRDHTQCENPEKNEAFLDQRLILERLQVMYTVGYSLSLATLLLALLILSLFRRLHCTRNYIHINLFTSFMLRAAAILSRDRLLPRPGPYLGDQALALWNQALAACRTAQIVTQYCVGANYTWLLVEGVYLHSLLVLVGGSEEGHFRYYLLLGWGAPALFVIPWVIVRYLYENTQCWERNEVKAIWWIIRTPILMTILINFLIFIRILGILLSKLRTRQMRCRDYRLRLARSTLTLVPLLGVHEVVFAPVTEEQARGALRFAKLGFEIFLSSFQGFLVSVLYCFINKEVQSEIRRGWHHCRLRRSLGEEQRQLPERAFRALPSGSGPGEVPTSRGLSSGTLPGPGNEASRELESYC

B1: Example 189 (peptide)
chain: YXQGTFTSDFSXXLDKKAQXAFIEYLLEXGXSSGAPPPSGE
modifications: Aib, Orn, αMeL, 4Pal; lipidated Lys; C-terminal amide; synthetic construct; SITE 2: note = 2-Aminoisobutyric Acid; SITE 12: note = L-ornithine; SITE 13: note = alpha-methyl-leucine; SITE 17: note = Lysine is chemically modified through conjugation of the epsilon-amino group of the Lysine side chain with (2-[2-(2-Amino-ethoxy)-ethoxy]-acetyl)2-(gamma-Glu)
B2: Example 214 (peptide)
chain: B1 chain with X29A, X31P, G34X, E41T
modifications: Lys acylated with AEEA-γGlu-C18 diacid; non-natural residues; C-amide; synthetic construct; SITE 2: note = 2-Aminoisobutyric Acid; SITE 12: note = L-ornithine; SITE 13: note = alpha-methyl-leucine; SITE 17: note = Lysine is chemically modified through conjugation of the epsilon-amino group of the Lysine side chain with (2-[2-(2-Amino-ethoxy)-ethoxy]-acetyl)-(gamma-Glu)
B3: Example 226 (peptide)
chain: B1 chain with F10X, X12Q, L27I, X31E, E41S
modifications: non-natural residues, lipidated Lys, C-terminal amide; synthetic construct; SITE 2: note = 2-Aminoisobutyric Acid; SITE 10: note = 3-(4-Pyridyl)-L-alanine; SITE 13: note = alpha-methyl-leucine; SITE 17: note = Lysine is chemically modified through conjugation of the epsilon-amino group of the Lysine side chain with (2-[2-(2-Amino-ethoxy)-ethoxy]-acetyl)
B4: Example 212 (peptide)
chain: B1 chain with X29A, X31P, E41S
modifications: Aib, Orn, αMeL, D-Ala; acylated Lys; synthetic construct; SITE 2: note = 2-Aminoisobutyric Acid; SITE 12: note = L-ornithine; SITE 13: note = alpha-methyl-leucine; SITE 17: note = Lysine is chemically modified through conjugation of the epsilon-amino group of the Lysine side chain with (2-[2-(2-Amino-ethoxy)-ethoxy]-acetyl)-(gamma-Glu)
B5: Example 200 (peptide)
chain: B1 chain with X31P, E41T
modifications: non-natural residues, acylated Lys (AEEA-γGlu-C18 diacid), C-terminal amide; synthetic construct; SITE 2: note = 2-Aminoisobutyric Acid; SITE 12: note = L-ornithine; SITE 13: note = alpha-methyl-leucine; SITE 17: note = Lysine is chemically modified through conjugation of the epsilon-amino group of the Lysine side chain with (2-[2-(2-Amino-ethoxy)-ethoxy]-acetyl)-(gamma-Glu)
B6: Example 209 (peptide)
chain: B1 chain with X29A, X31P, E41S
modifications: Aib, Orn, αMeL, D-Ala, acylated Lys, C-terminal amide; synthetic construct; SITE 2: note = 2-Aminoisobutyric Acid; SITE 12: note = L-ornithine; SITE 13: note = alpha-methyl-leucine; SITE 17: note = Lysine is chemically modified through conjugation of the epsilon-amino group of the Lysine side chain with (2-[2-(2-Amino-ethoxy)-ethoxy]-acetyl)-(gamma-Glu)
B7: Example 211 (peptide)
chain: B1 chain with X29A, X31P, E41X
modifications: non-natural residues, acylated Lys, C-terminal amide; synthetic construct; SITE 2: note = 2-Aminoisobutyric Acid; SITE 12: note = L-ornithine; SITE 13: note = alpha-methyl-leucine; SITE 17: note = Lysine is chemically modified through conjugation of the epsilon-amino group of the Lysine side chain with (2-[2-(2-Amino-ethoxy)-ethoxy]-acetyl)-(gamma-Glu)
B8: Example 232 (peptide)
chain: B1 chain with X12Q, L27I, X31E, E41S
modifications: non-natural residues (Aib, αMeL, αMe4Pal); lipidated K; C-terminal amide; synthetic construct; SITE 2: note = 2-Aminoisobutyric Acid; SITE 13: note = alpha-methyl-leucine; SITE 17: note = Lysine is chemically modified through conjugation of the epsilon-amino group of the Lysine side chain with (2-[2-(2-Amino-ethoxy)-ethoxy]-acetyl)-(gamma-Glu)-CO-(CH2) 16-CO2H; SITE 20: n
B9: Example 192 (peptide)
chain: B1 chain with X31P, E41S
modifications: Aib, Orn, αMeL; lipidated Lys (AEEA-γGlu2-C18 diacid); C-term amide; synthetic construct; SITE 2: note = 2-Aminoisobutyric Acid; SITE 12: note = L-ornithine; SITE 13: note = alpha-methyl-leucine; SITE 17: note = Lysine is chemically modified through conjugation of the epsilon-amino group of the Lysine side chain with (2-[2-(2-Amino-ethoxy)-ethoxy]-acetyl)-(gamma-Glu)

Where a chain is given by its changes, count along the chain named.

hGLP-1R, sequence (P43220 24-463): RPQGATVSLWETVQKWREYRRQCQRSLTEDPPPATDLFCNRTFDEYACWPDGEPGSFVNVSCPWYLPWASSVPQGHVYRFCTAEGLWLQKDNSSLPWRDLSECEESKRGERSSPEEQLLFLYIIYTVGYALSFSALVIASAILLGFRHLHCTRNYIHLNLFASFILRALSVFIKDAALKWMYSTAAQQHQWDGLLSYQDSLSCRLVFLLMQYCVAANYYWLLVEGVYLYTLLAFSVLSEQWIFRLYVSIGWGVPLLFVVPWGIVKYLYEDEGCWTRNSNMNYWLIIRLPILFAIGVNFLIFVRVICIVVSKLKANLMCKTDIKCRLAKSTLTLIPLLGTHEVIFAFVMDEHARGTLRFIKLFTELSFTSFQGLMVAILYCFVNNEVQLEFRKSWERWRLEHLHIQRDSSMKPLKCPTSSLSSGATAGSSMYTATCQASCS

The target in the first assay is human glucagon receptor (human) (UniProt P47871). As to the kind of experiment: cell-based or functional assay.
human glucagon receptor (human), sequence (P47871 26-477): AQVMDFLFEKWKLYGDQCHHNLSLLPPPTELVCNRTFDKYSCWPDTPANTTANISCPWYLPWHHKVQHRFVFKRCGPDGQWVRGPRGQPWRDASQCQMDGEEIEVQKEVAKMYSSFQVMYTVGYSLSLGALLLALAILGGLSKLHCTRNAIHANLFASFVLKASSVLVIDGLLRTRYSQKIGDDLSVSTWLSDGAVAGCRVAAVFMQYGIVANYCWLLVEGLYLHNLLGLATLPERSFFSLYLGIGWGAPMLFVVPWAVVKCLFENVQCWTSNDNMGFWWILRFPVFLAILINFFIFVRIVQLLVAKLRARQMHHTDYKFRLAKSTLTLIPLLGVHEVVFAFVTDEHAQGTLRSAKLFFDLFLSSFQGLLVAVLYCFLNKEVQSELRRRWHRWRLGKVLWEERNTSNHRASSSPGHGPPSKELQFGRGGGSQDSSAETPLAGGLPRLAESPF
With B1, the Relative cAMP EC50, nM (0.1% casein) was 6.28 nM and the cAMP Rel EC50, nM (1% HSA) worked out at 853 nM.

Regarding B2, the Relative cAMP EC50 was found to be 2.49 nM and the cAMP Rel EC50, nM (1% HSA) is 302 nM.

As to B3, the Relative cAMP EC50 was 3.08 nM and the cAMP Rel EC50, nM (1% HSA) is 763 nM.

Regarding B4, the Relative cAMP EC50 stood at 3.74 nM.

For the molecule B5, the Relative cAMP EC50 came out at 2.83 nM and the cAMP Rel EC50, nM (1% HSA) was determined as 360 nM.

Regarding B6, the Relative cAMP EC50 was 3.08 nM.

For the molecule B7, the Relative cAMP EC50 is 2.05 nM and the cAMP Rel EC50, nM (1% HSA) was determined as 370 nM.

With B8, the Relative cAMP EC50 was 2.42 nM and the cAMP Rel EC50, nM (1% HSA) was found to be 482 nM.

In turn, B9 displayed a Relative cAMP EC50, nM (0.1% casein) of 4.18 nM and a cAMP Rel EC50, nM (1% HSA) of 560 nM.

The next assay addresses hGLP-1R (Homo sapiens, UniProt P43220). As to the kind of experiment: cell-based or functional assay.
On to B1, for which the Relative cAMP EC50, nM (0.1% casein) amounted to 4.46 nM and the cAMP Rel EC50, nM (1% HSA) came to 423 nM.

Turning to B2, the Relative cAMP EC50 was determined as 1.22 nM and the cAMP Rel EC50, nM (1% HSA) came to 186 nM.

Regarding B3, the Relative cAMP EC50 worked out at 1.97 nM and the cAMP Rel EC50, nM (1% HSA) is 354 nM.

In turn, B4 yielded a Relative cAMP EC50 of 1.35 nM.

Turning to B5, the Relative cAMP EC50 amounted to 3.19 nM and the cAMP Rel EC50, nM (1% HSA) was 395 nM.

Molecule B6 had a Relative cAMP EC50 of 1.78 nM.

B7 gave a Relative cAMP EC50 of 1.23 nM and a cAMP Rel EC50, nM (1% HSA) of 234 nM.

The molecule B8 returned a Relative cAMP EC50 of 0.819 nM and a cAMP Rel EC50, nM (1% HSA) of 226 nM.

In turn, B9 gave a Relative cAMP EC50, nM (0.1% casein) of 9.77 nM and a cAMP Rel EC50, nM (1% HSA) of 719 nM.

Another assay deals with human GLP-1R (SNAP-GLP-1R expressed in HEK293 cells) (human) (UniProt P43220). As to the kind of experiment: cell-based or functional assay.
human GLP-1R (SNAP-GLP-1R expressed in HEK293 cells) (human), sequence (P43220 24-463): as the sequence (P43220 24-463) above
As for B1, the GLP1R Internalization EC50 is 103 nM and the Internalization % TOP came to 45.8%.

Turning to B2, the GLP1R Internalization EC50 was found to be 50.1 nM and the Internalization % TOP stood at 41.7%.

B3 returned a GLP1R Internalization EC50 of 29.1 nM and an Internalization % TOP of 59.3%.

As for B4, the GLP1R Internalization EC50 was determined as 79.7 nM and the Internalization % TOP was found to be 43%.

On to B5, for which the GLP1R Internalization EC50 worked out at 86.1 nM and the Internalization % TOP amounted to 39.2%.

For the molecule B6, the GLP1R Internalization EC50 came out at 83.1 nM and the Internalization % TOP turned out to be 41.2%.

The molecule B7 gave a GLP1R Internalization EC50 of 57.4 nM and an Internalization % TOP of 26.9%.

In turn, B8 yielded a GLP1R Internalization EC50 of 44.7 nM and an Internalization % TOP of 45.5%.

Take B9: the GLP1R Internalization EC50 was 115 nM and the Internalization % TOP is 48.7%.

A further assay has as its target T1, human GIP receptor (human). As to the kind of experiment: cell-based or functional assay.
Regarding B1, the Relative cAMP EC50, nM (0.1% casein) was determined as 0.0695 nM and the cAMP Rel EC50, nM (1% HSA) stood at 22.2 nM.

As to B2, the Relative cAMP EC50 amounted to 0.103 nM and the cAMP Rel EC50, nM (1% HSA) was 15.1 nM.

B3 returned a Relative cAMP EC50 of 0.127 nM and a cAMP Rel EC50, nM (1% HSA) of 32.2 nM.

Molecule B4 returned a Relative cAMP EC50 of 0.13 nM.

Regarding B5, the Relative cAMP EC50 was 0.0739 nM and the cAMP Rel EC50, nM (1% HSA) was found to be 13.7 nM.

Consider B6, for which the Relative cAMP EC50 came to 0.129 nM.

Take B7: the Relative cAMP EC50 worked out at 0.116 nM and the cAMP Rel EC50, nM (1% HSA) turned out to be 20.6 nM.

As to B8, the Relative cAMP EC50 turned out to be 0.102 nM and the cAMP Rel EC50, nM (1% HSA) stood at 24.6 nM.

Take B9: the Relative cAMP EC50, nM (0.1% casein) is 0.142 nM and the cAMP Rel EC50, nM (1% HSA) was 9.86 nM.
